Experimental data from US20230226096A1 (Orna Therapeutics, Inc., priority 2020, published 2023).

B1: Aichivirus DVI2169 (nucleic acid, listed as Aichivirus sp.)
DNA: TACTCCATTCAGCTTCTTCGGAACCTGTTCGGAGGAATTAAACGGGCACCCATACACCCCCACCCCCTTTTCTGCAACTTAAGTATGTGTGCTCGTAATCTTGACTCCCACGGAATGGATCGATCCGCTGGAGAACAAACTGCTAGATCCACATCCTCCCTTCCCCTGGGAGGACCCCGGTCCTCCCACATCCTCCCCCCAGCCTGACGTATCACAGGCTGTGTGAAGTCCCCGCGAAAGCTGCTCACGTGGCAATTGTGGGTCCCCCCTTCATCAAGACACCAGGTCTTTCCTCCTTAAGGCTAGCCCCGATGTGTGAATTCACATTGGGCAACTAGTGGTGTCACTGTGCGCTCCCAATCTCGGCCGCGGAGTGCTGTTCCCCAAGCCAAACCCCTGGCCCTTCACTATGTGCCTGGCAAGCATATCTGAGAAGGTGTTCCGCTGTGGCTGCCAGCCTGGTAACAGGTGCCCCAGTGTGCGTAACCTTCTTCCGTCTCCGGACGGTAGTGATTGGTTAAGATTTGGTGTAAGGTTCATGTGCCAACGCCCTGTGCGGGATGAAACCTCTACTGCCCTAGGAATGCCAGGCAGGTACCCCACCTTCGGGTGGGATCTGAGCCTGGGCTAATTGTCTACGGGTAGTTTCATTTCCAATTCTTTTATGTCGGAGTC
B2: Aichivirus rat08 (nucleic acid, listed as Aichivirus sp.)
DNA: TACTCCATTCAGCTTCTTCGGAACCTGTTCGGAGGAATTAAACGGGCACCCACTTTCCTGTCCTCTCCCCTTTTCTGTAACTCCAAGTGTGTGCTCGTAATCTTGACTCCCGCGGATTGACCGCTCCGCTGGTGAACAAACTGCTAGGTCATCTCCTCCCCACCCTTGGGCGTCCTTCCGGGCGTCCACACCCTCCCCCCAGCCTGACGTGTCACAGGCTGTACAAAGACCCCGCGAAAGCTGCTAACGTGGCAATTGTGGGTCCCCCCTTTGTAAAGGAACCGAGTCTTTCTCCCTTAAGGCTAGACCCCTGTGTGAATTCACAGGTGGCAACTAGTGGTTCCACTGCATGCTCCCGACCTCGGCCGCGGAGTGCTGTTCCCCAAGTCGTAACACTGACCTTCACTTATGTGCCTGGCAAGCATATCTGAGAAGATGTTCCGCTGTGGCTGCCAAACCTGGTAACAGGTGCCCCAGTGTGCGTAGTCTTCTTCCGTCTTCGGACGGTAGGTGTTAGGTAAAGATGCGGCGTAAGGTTCAAGTGCCAACGCCCTGGAAGGGATGACCCTTCTACTGCCCTAGGAATGCCGCGCAGGTACCCCAGGTTCGCCTGGGATCTGAGCGCGGGCTAATTGTCTACGGGTAGTTTCATTTCCCTCTTCTTCCACTGGCATC
B3: Aichivirus Rt386 (nucleic acid, listed as Aichivirus sp.)
DNA: ACTCCATTCAGCTTCTTCGGAACCTGTTCGGAGGAATTAAACGGGCACCCACTTTCCTGTCCTCTCCCCCTTTCTGCAACTCAAGTGTGTGCTCGTAATCCTGACTCCCACGGGTTGACCGCCCCGTTGGTGAACAAACAGCTAGGTCATTCCCTCCCTACCCCTGGGCGCCATTTCAGTGGCGTTCATATCCTCCCCCCAGCCTGACGTGTCACAGGCTGTGCAAAGTCCCCGCGAAAGCTGCTCACGTGGCAATTGTGGGTCCCCCCTTTGTGAAGGAACCGAGTCTTTCTCCCTTAAGGCTAGACCCCTGTGTGAACTCACAGGTGGCAACTAGTGGTTCCACTGCATGCTCCCGACCTCGGCCGCGGAGTGCTGTTCCCCAAGTCGTGACACTGACCTCCACTTATGTGCCTGGCAAGCATATCTGAGAAGATGTTCCGCTGTGGCTGCCAAACCTGGTAACAGGTGCCCCAGTGCGTGTAGTCTTCTTCCGTCTCCGGACGGTAAGTGTGTGGTAAAGATGCGGCGTAAGGTTCAAGTGCCAACGCCCTGGAAGGGATGACCCTTCTACTGCCCTAGGAATGCCGCGCAGGTACCCCAGGTTCGCCTGGGATCTGAGCGCGGGCTAATTGTCTACGGGTAGTTTCATTTCCCTCTCTTTTCACTGGCATC
B4: Aichivirus ETHP4 (nucleic acid, listed as Aichivirus sp.)
DNA: TTACTCCATTCAGCTTCTTCGGAACCTGTTCGGAGGAATTAAACGGGCACCCATACACCCCCACCCCCTTTTTGCAACTTAAGTATGTGTGCTCGTGATCTTGACTCCCACGGAATGGATCGATCCGCTGGAGAACAAACTGCTAGATCCACATCCTCCCTTCCCTTGGGAGGACCTCGGTCCTCCCACATCCTCCCCCCAGCCTGACGTACCACAGGCTGTGTGAAGCCCCCGCGAAAGCCGCTCACGTGGCAATTGTGGGTCCCCCCTTCATTAAGACACCAGGTCTTTCCTCCTTAAGGCTAGTCCCGATGTGTGAATTCACATTGGGCAACTAGTGGTGTCACTGTGCGCTCCCAATCTCGGCCGCGGAGTGCTGTTCCCCAAGCCAAACCCCTGGCCCTTCACTATGTGCCTGGCAAGCATATCTGAGAAGGTGTTCCGCTGTGGCTGCCAGCCTGGTAACAGGTGCCCCAGTGTGCGTAACCTTCTTCCGTCTTCGGACGGTAGTGATTGGTTAAGATTTGGCGTAAGGTTCATGTGCCAACGCCCTGTGCGGGATGAAACCTCTACTACCCTAGGAATGCCAGGCAGGTACCCCACCCTCGGGTGGGATCTGAGCCTGGGCTAATTGTCTACGGGTAGTTTCATTTCCAATTCTTCTATGTCGGAGTC
B5: Symapivirus A (nucleic acid)
DNA: TTGGGAAATCCCCAATGCTTCTTTCAACACCGCCTGACTATGCGGTGGCGCTTCGGCTCAAACAACTAGTCACTTCCCCCTCTTAACTACTACCCAAGACTTCTAACTACCCTTACCTACTTATTTGTCTAAATTTCAAACTTTTATTCTCACGCGTCTTATAAACATCTTTTCTATTTGTTATGGTATGTTTTGTGATTTGTGTGGTGTATTTCATTTAATGGGATCTAGTGGACCGTGCCCCGGTTGGGTATCCGCTCCCTTTAAATGTTTGCAAGCACTCTTGACATTATAACCTATCATTTAGTTTACTTGTTTGTATGATCGTATTTCTGAATCGTAACATTTATGCAATTCTTTCTCGCCGAGACTTGTCTAGGAGATAAAGTTCCTGCATATTTAGTGTTACGGTTGTATAATGGAGACTTAGATAGCTTCACACTGAGGACGCTTTTTCGCTATCCTTTTGACCTGATTCAGGCCAGTGTGGAGTTAATGATTGTATGGATGGGCCCTACAATTTGTCTAAGACTTGGTGATAGCCTCGCGGCCGCTCGCCATTTATACAACTGAATAGCGGTTGAAACTCTCT
modifications: Symapivirus A
B6: Aichivirus DVI2321 (nucleic acid, listed as Aichivirus sp.)
DNA: GCTTCTTCGGAACCTGTTCGGAGGAATTAAACGGGCACCCATACACCCCCACCCCCTTTTCTGCAACTTAAGTATGTGTGCTCGTAATCTTGACTCCCACGGAATGGATCGATCCGCTGGAGAACAAACTGCTAGATCCACATCCTCCCTTCCCCTGGGAGGACCCCGGTCCTCCCACATCCTCCCCCCAGCCTGACGTATCACAGGCTGTGTGAAGTCCCCGCGAAAGCTGCTCACGTGGCAATTGTGGGTCCCCCCTTCATCAAGACACCAGGTCTTTCCTCCTTAAGGCTAGCCCCGATGTGTGAATTCACATTGGGCAACTAGTGGTGTCACTGTGCGCTCCCAATCTCGGCCGCGGAGTGCTGTTCCCCAAGCCAAACCCCTGGCCCTTCACTATGTGCCTGGCAAGCATATCTGAGAAGGTGTTCCGCTGTGGCTGCCAGCCTGGTAACAGGTGCCCCAGTGTGCGTAACCTTCTTCCGTCTCCGGACGGTAGTGATTGGTTAAGATTTGGTGTAAGGTTCATGTGCCAACGCCCTGTGCGGGATGAAACCTCTACTGCCCTAGGAATGCCAGGCAGGTACCCCACCTTCGGGTGGGATCTGAGCCTGGGCTAATTGTCTACGGGTAGTTTCATTTCCAATTCTTTTATGTCGGAGTC
B7: Pronghorn antelope pestivirus (nucleic acid, listed as Pestivirus sp.)
DNA: GTATACGCAGTTAGTTCATCCTGTGTATACAGATTGGAGACTCTAAAAACAACGATTCGGAATAGGGGCCCGCGGCGAAGACCGAAGACAGGCTAACCATGCCGTTAGTAGGGCTAGCACCAAAACGCGGGAACTAGACACTTAGGAGAGTGGTCTGGCTACTCTAAGAGGTGAGTACACCTTAACCGTCAAGGGTTCTACTCCTCAGTTGAGGACTAGAGATGCCCTGTGGACGGGGGCATGCCCAAGAGTTAGCTTAGCCGGGGCGGGGGTTGTTCCGGTGAAAGTAGCAATATTGACCACACTGCCTGATAGGGCGGAGCAGGCCCCCTAGGTAGTCTAGTATAAAATGTCTGCTGTACATGGCAC
B8: Kobuvirus SZAL6: "Kobuvirus SZAL6 IRES", one of the selected IRES sequences, SEQ ID NOs: 348-389 (nucleic acid, listed as Kobuvirus sp.)
DNA: TTTCACACCCTCTTTTCCGGTGGTCCGGACCCAGACCACCGTTACTCCATTCAGCTACTTCGGTACCTGTTCGGAGGAATTAAACGGGCACCCTACCCAAGGGTTACATGGGACCATATTCCTCCTCCCCTGTAACTTTAAGTTTTGTGCCCGTATTCTTGACTCCAGGCGGATGTTGTGTCGCCCGTCCTGTGAACAAACAGCTAGACACTTTCCTCCCCTCCCTCTGGGCTGCTCCGGCAGTCCACTCCCTCCCCCCAGCGTAACATGCCCCGCTGGAGTGATGCACCTGGAAGTCGTGGACGTGGGTTAGTAACTTCGGTGAAAACCCACTATAATGACAACTGGTTGACCCCCACACTCAAAGGACTCGAGTCTTTCTCCCTTAAGGCTAGCCCGGCCACATGAATTTGCAGCTGGCAACTAGTGAGTCCACCATGTCCCGCAACCTCGGCTGCGGAGTGCTGTTCCCCAAGCGTATGCCTTCCTTCTGTAAGAGTGCGCCTGGCAAGCACATCTGAGAAGTCGTTCCGCTGCGTCGTGCCAACCTGGCGACAGGTGACCCAGTGTGCGTAGACTTCTTCCGGATTCGTCCGGCTCTTCTCTAGGAAACATGCGTGTAAGGTTCATGTGCCAAAGCCCTGCGCGCGGTGTTCTTCTACTGCCCTAGGAATGTGCCGCAGGTACCCCTACTTCGGTAGGGATCTGAGCGGTAGCTAATTGTCTACGGGTAGTTTCATTTCCATCTTCTCTTCAGGTCGACATC
B9: Porcine Kobuvirus GS2 (nucleic acid, listed as Kobuvirus sp.)
DNA: TTTGAAAAGGGGGTGGGGGGGCCTCGGCCCCCTCACCCTCTTTTCCGGTGGCCATTCGCCCGGGCCACCGTTACTCCACTCCACTCCTTCGGGACTGGTTTGGAGGAACACAACAGGGCTTCCCATCCCTGTTTACCCTTTATTCCATCATCCTTTCCCCAAGTTTACCCTATCCACACCCCACTGACTGACTCCTTTGGATTTTGACCTCAGAATGCCTATTTGACCTCCCACTCGCCTCTCCCTTTTCGGATTGCCGGTGGTGCCTGGCGGAAAAAGCACAAGTGTGTTGCAGGCTACCAAACTCCTACCCGACAAAGGTGCGTGTCCGCGTGCTGAGTAATGGGATAGGAGATGCCTACAACAGGCTCGCCCATGAGTAGAGCATGGACTGCGGTGCATGTGACTTCGGTCACCACGGGCATAGCATTGCTCACCCGTGAATCAAGTCATCGAGATTTCTCTGACCTCTGAAGTGCACTGTGGTTGCGTGGCTGGGAATCCACGCTTGACCATGTACTGCTTGATAGAGTCGCGGCTGGCCGACTCATGGGTTAAAGTCAGTTGACAAGACAC

The molecules below were run on HEK293 cells. Details: luminescence from secreted Gluc in supernatant 24 hours after transfection of HEK293 cells; circular RNA encoding Gluc with the named IRES (UTR truncated to 675 nt).
Format: cell-based, human
B1 showed an Expression of 2.98E+06. B2 gave an Expression of 3.51E+07. B3 showed an Expression of 5.71E+07. Molecule B4 has an Expression of 1.78E+07. B5 was tested, and the Expression was 1.27E+05. B6 was tested, and the Expression was 6.63E+07. In the case of B7, the Expression is reported as 1.35E+06. B8 was tested, and the Expression was 98850000. Work on B9 yielded an Expression of 44200000.
